According to PMC5518674:

Target: T1, HisMBP-TZAP Znf9-11 (UniProt P10074 521-600)
T1 sequence: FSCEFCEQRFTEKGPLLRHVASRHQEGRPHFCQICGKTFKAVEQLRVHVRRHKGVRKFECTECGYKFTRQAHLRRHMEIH
Assay: EMSA

B1: Telo6 (dsDNA)
DNA 1: GGTCGACTCTAGAGATCGAAGGGTTAGGGTTAGGGTTAGGGTTAGGGTTAGGGTTACGATCCCGGGTACCGAGCTCGA
DNA 2: TCGAGCTCGGTACCCGGGATCGTAACCCTAACCCTAACCCTAACCCTAACCCTAACCCTTCGATCTCTAGAGTCGACC
B1: binds.
